Laboratory results taken from publication PMC5467268, “Crystal structures of U6 snRNA-specific terminal uridylyltransferase” (Nature Communications, 2017).

Legend:
[1] = target: T1, TUT1_ΔN (form-II crystal) (Homo sapiens, UniProt Q9H6E5, DEL235-304/C372A/C399A/C415A/C501A/C504S/C574A/DEL651-750); assay: X-ray crystal structure (soak), […] Å; assay type: binding; conditions: Mg2+; 10 mM ATP, 20 mM MgCl2; incoming nucleotide site
T1 construct: gene TUT1; palm, fingers and KA-1 domains; residues 1-140, 235-304 and 651-750 removed; cysteine mutations (order of the two mutation sets read as form-I, form-II); pET22b His tag, E. coli
T1 sequence (Q9H6E5 with tags, fused parts or gaps DEL235-304/C372A/C399A/C415A/C501A/C504S/C574A/DEL651-750): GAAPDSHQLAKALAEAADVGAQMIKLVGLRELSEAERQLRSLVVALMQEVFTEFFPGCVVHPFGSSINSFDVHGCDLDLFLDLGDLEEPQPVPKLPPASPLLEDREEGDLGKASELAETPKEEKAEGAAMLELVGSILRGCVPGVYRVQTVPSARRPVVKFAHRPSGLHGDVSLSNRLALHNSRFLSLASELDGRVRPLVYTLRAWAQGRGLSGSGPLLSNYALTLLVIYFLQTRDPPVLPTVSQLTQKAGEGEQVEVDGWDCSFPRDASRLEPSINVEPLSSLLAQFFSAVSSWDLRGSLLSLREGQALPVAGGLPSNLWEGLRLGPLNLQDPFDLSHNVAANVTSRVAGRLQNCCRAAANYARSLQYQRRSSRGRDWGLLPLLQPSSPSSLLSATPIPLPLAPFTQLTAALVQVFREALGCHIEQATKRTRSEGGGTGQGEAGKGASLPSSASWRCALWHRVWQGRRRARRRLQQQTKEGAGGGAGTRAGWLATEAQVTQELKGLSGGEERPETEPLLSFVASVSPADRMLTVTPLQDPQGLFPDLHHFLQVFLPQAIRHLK

TUT1_ΔN (form-I crystal) = target: T2, TUT1_ΔN (form-I crystal) (Homo sapiens, UniProt Q9H6E5, DEL235-304/C372A/C415A/C501A/C504S/DEL651-750); assay: X-ray crystal structure (soak), […] Å; assay type: binding; conditions: Ba2+; 2 mM UTP, 4 mM BaCl2; incoming nucleotide site
T2 construct: gene TUT1; palm, fingers and KA-1 domains; residues 1-140, 235-304 and 651-750 removed; cysteine mutations (order of the two mutation sets read as form-I, form-II); pET22b His tag, E. coli
T2 sequence (Q9H6E5 with tags, fused parts or gaps DEL235-304/C372A/C415A/C501A/C504S/DEL651-750): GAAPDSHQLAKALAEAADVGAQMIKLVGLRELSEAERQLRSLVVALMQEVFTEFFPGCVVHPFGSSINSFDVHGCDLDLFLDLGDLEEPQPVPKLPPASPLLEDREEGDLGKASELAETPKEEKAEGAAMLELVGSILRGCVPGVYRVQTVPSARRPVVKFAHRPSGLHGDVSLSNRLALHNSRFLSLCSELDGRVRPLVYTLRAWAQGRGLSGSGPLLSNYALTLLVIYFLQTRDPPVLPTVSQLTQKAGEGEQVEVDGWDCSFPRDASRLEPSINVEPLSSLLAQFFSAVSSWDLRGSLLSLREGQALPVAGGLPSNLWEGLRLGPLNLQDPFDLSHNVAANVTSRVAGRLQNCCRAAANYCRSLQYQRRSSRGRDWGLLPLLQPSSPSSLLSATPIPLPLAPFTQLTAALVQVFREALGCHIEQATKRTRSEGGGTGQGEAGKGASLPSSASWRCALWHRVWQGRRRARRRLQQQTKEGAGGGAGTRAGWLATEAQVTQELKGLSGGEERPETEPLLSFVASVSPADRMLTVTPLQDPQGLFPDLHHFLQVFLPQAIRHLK

[2] = target: T1, TUT1_ΔN (form-II crystal); assay: X-ray crystal structure (soak), […] Å; assay type: binding; conditions: Mg2+; 2 mM UTP, 4 mM MgCl2; incoming nucleotide site
purified protein [3] = substrate: Nc1ncnc2c1ncn2[C@@H]1O[C@H](COP(=O)(O)OP(=O)(O)OP(=O)(O)O)[C@@H](O)[C@H]1O; assay: purified protein; assay type: biochemical, Homo sapiens; conditions: co-substrate 1 μM U6 snRNA-u4, 10 mM MgCl2, 100 mM NaCl, pH 8.5, 37 °C
purified protein [4] = substrate: O=c1ccn([C@@H]2O[C@H](COP(=O)(O)OP(=O)(O)OP(=O)(O)O)[C@@H](O)[C@H]2O)c(=O)[nH]1; assay: purified protein; assay type: biochemical, Homo sapiens; conditions: co-substrate 1 μM U6 snRNA-u4, 10 mM MgCl2, 100 mM NaCl, pH 8.5, 37 °C

Molecule: Nc1ncnc2c1ncn2[C@@H]1O[C@H](COP(=O)(O)OP(=O)(O)OP(=O)(O)O)[C@@H](O)[C@H]1O [ATP]
- X-ray crystal structure (soak), 2.8 Å [1]: form-II TUT1_ΔN with UTP and ATP soaked in were also analysed

Molecule: O=c1ccn([C@@H]2O[C@H](COP(=O)(O)OP(=O)(O)OP(=O)(O)O)[C@@H](O)[C@H]2O)c(=O)[nH]1 [UTP]
- X-ray crystal structure (soak), 2.95 Å (TUT1_ΔN (form-I crystal)): The form-I TUT1_ΔN structure complexed with UTP (soaked in) was initially solved
- X-ray crystal structure (soak), 2.7 Å [2]: form-II TUT1_ΔN with UTP and ATP soaked in were also analysed

B1: human TUT1 (full-length, wild-type) (Homo sapiens) (protein)
chain: MAAVDSDVESLPRGGFRCCLCHVTTANRPSLDAHLGGRKHRHLVELRAARKAQGLRSVFVSGFPRDVDSAQLSEYFLAFGPVASVVMDKDKGVFAIVEMGDVGAREAVLSQSQHSLGGHRLRVRPREQKEFQSPASKSPKGAAPDSHQLAKALAEAADVGAQMIKLVGLRELSEAERQLRSLVVALMQEVFTEFFPGCVVHPFGSSINSFDVHGCDLDLFLDLGDLEEPQPVPKAPESPSLDSALASPLDPQALACTPASPPDSQPPASPQDSEALDFETPSSSLAPQTPDSALASETLASPQSLPPASPLLEDREEGDLGKASELAETPKEEKAEGAAMLELVGSILRGCVPGVYRVQTVPSARRPVVKFCHRPSGLHGDVSLSNRLALHNSRFLSLCSELDGRVRPLVYTLRCWAQGRGLSGSGPLLSNYALTLLVIYFLQTRDPPVLPTVSQLTQKAGEGEQVEVDGWDCSFPRDASRLEPSINVEPLSSLLAQFFSCVSCWDLRGSLLSLREGQALPVAGGLPSNLWEGLRLGPLNLQDPFDLSHNVAANVTSRVAGRLQNCCRAAANYCRSLQYQRRSSRGRDWGLLPLLQPSSPSSLLSATPIPLPLAPFTQLTAALVQVFREALGCHIEQATKRTRSEGGGTGESSQGGTSKRLKVDGQKNCCEEGKEEQQGCAGDGGEDRVEEMVIEVGEMVQDWAMQSPGQPGDLPLTTGKHGAPGEEGQPSHAALAERGPKGHEAAQEWSQGEAGKGASLPSSASWRCALWHRVWQGRRRARRRLQQQTKEGAGGGAGTRAGWLATEAQVTQELKGLSGGEERPETEPLLSFVASVSPADRMLTVTPLQDPQGLFPDLHHFLQVFLPQAIRHLK
notes: full-length 1-874, synthetic codon-optimised gene, pET22b (His tag, no cleavage told), E. coli BL21(DE3), Ni-NTA/heparin/Superdex 200
- Km (purified protein [3]): 1,380 μM
- kcat (purified protein [3]): 0.002 s^–1
- Km (purified protein [4]): 59 µM
- kcat (purified protein [4]): 0.059 s^–1
